Data published in the domain aggregation screens of Martell et al. (2025).

Assay: soluble fraction after stress (log2 fold change); higher = more stays soluble; pooled small domains, quantitative proteomics
Settings: stress: pH 4
How it was run: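 Aggregation propensity is estimated from the fold change in each domain's soluble amount after acid stress. Pooled small-domain libraries were stressed at pH 4, and higher log2 values mean more stayed soluble.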

Row | Sequence | soluble fraction (log2)
1 | HMKFPPASDIRRMRKAIDVTQTELAKQSGVSQSTIAKIERGRISASYDTVVKLFETLDEMAK | -0.00924
2 | HMKLTKPKLIQLIHIAKSKLNMDELSYRVLLDNLTGKTSTTKMTVGELLKVYESMKDKGFKPQV | 0.104
3 | HMTQQYVEWKVYNVTTIKNKYGFRVKLIFQDGSDATQQKGGFTSKKAAEQARTEVIGQLYSNTYVVY | ≥ 0.43
4 | HMTGMEASLSKLLQGEQFADLRKALIDKGIRKLEAFKRLNLWVFMNRNRLYSIGQRQTVYSTLQRALASE | 0.085
5 | HMNNESEGAIMLRQYSSLSAYLTKYNIDVNSKKAQQYASSLKLAQEKGSAEGQKYLSSISSELDD | 0.00542
6 | HMILSTNFFRHIVPKEYQTSYGTMKKWLTDHNVIGTNSIPQGIGYRIPTQGLSSTFSFKVVDVLPDR | ≥ 0.43
7 | HMAEVIYGAGKTPAQMLGILRTMQAHGQKTVLITRLREEAAEEIGREIPLQYDKTAGVGIVGTLPQPDG | -0.0513
8 | HMVNSIQIHKKLRLDKRAGSDNWYARLTLPNGKRLVKTTKTEDIETAKEVALRLYYEVDARIQNKLPAT | -0.158
9 | HMTGREIDQLFSVVNDLKAKGVGMVFISHHLDEIARIADSVSVLRDGGFVAEVPASTPEKKLVTLMVGRDI | -0.369
10 | HMSVALSENIKTRRKALKMSQEYVAEQLDISRQAVAKWEAGKSEPTTENLVKLAALFEMSVSELVE | 0.35
11 | HMEDKFEYQGERKSLIYPTSFSELTEALGVRNMLQSIIDFATRDEDTSGYEEMKERQNEYIQEYL | 0.0125
12 | HMRTAELEVWDDDELNDVVKLIQNNHNINTLKLRFQENVSFSGLSLIAAVLTKQSIILEIEY | -1.32
13 | HMQNYNLTQQEKKVLQLLVSGKSYKMIAAELNVAFDTVKSHITNIYSKLHVHSGTEAVSVAIRDKI | 0.199
14 | HMITDSSEIEAMVDALVKENPGQAEQYKDGNMKVAGWFIGQIMKVSKGKANPQLVGDLLKKKLG | ≥ 0.43
15 | HMRWAAIMGREVAAHSTPESLVEGKLHIRTDTTAWATQLRLMSADIVRRLNEVLGEGTVLEVDVRG | -1.12
16 | HMFHGEGVQANNIQAYIVLKMAAVNGAEDALDTADEVSEKMSREDLETATQVLGQIFRKYLMELQSA | -1.12
17 | HMYSKQRELIMEAVFKNRVHPTAEYVYKLLKKDHPELSLGTVYRNLNYWAENNMLKKINVPGGSDRFDGT | 0.236
18 | HMTETPDDLLAALKKNKKAQATFDAFSPSNKKEYILWITEAKTEATRTKRLETAIEWMSEGKARNW | 0.0435
19 | HMEFDSLINYEVKKKETLFSISKKFKIEINDLLSFNTELKNNKLKKNSIIIIPLKKKIVESQNFEKQKIID | -0.719
20 | HMRSVPNVAGLGMDGAAFQLGKAGFAIGTITPADDPKAVVGSIQRTEPAAGTVADRDTVVNLFQV | 0.22
21 | HMKGQNRSEITAGARVKVVQKQDQRTGALTEGIVRDILTRSPHHPHGIKVRLESGIVGRVKDVL | -0.287
22 | HMKQVEVESVIGKSEEAANSILTKAGLKVNIGYKEDSSKPTDTVLSQDPAPGEKVDEGTTVTIVVNNYKKP | -0.127
23 | HMQLPFTPREHEITQLLSRGLSNRQIAEALSLSVRTVEGHIYQASTKLGISSRSELAVLVGQFA | -0.967
24 | HMSKRDDLLDQASEWLAKLDRDLTVVEERELKAWLGESAAHRETFIQMAKLWDKMESLSRLTDL | -1.06
25 | HMAPEVTVHDGSIVVRGHVGGVTVYDESGRQIASVQSRGAVAIPVPAGHTYLYIVKPEGKPAIKVRAAH | -0.0212
26 | HMNASITVPDVRNLTVKQASEQLLASGFTPIPYAATKDGVGNDIVYAQDPPPSVLARSGDQITITYNPA | 0.198

Row | Sequence | soluble fraction (log2)
27 | HMLTGESDNVEKSINKLGTENLALADQTNMGFKGTFINSGHGMAIVVKTGMQTELGKIASMIQIA | 0.22
28 | HMPVFSLTPRELEILEWMSTPNTYRQIAAQLSVSEETVRSHAKNILEKMRQPNRAQAVLAAVKMGLIKL | -0.772
29 | HMTPADEAGNDLDIGQTVKILRRVSEGQYEVSYRGTTWQARALNAQAAVEPSFAVIGGKEGNILLVHL | -0.115
30 | HMIDAKTTLQELTQKSGKKPEYRLIKIEGPDHLRRFTVEVFIDGQSMGTGTGHSKKEAEQNAANFALKNLQ | ≥ 0.43
31 | HMSNEKVVKFAQELLVDEERSAISPALISAKIDQVLMFKPAWNEGLDRDAVVNELVRRFSIW | -1.19
32 | HMGSYANAWQLAEHAAKDMLGEVIYLLDGKEVHAGILETMSAESIKTASAENVDGKVVIRLVSK | -0.371
33 | HMSEFVIPLAKYNKALYTQVSLGMRFRMLFETEDSGVRRYMGTITGIGDLDPIRWKNSHWRNLQV | 0.22
34 | HMRSDHVFTSHLARRDKYISELESLSDSARDDHIQTIKEEDEYLLKYRRTRNLFGIPLNDEMKQFEPFNY | -1.16
35 | HMVTTTEAAKMLLVNAGHDVIKDGLTGASWASNTMKLADADGLLASVATKPNDALPRQYAAQMIYN | 0.265
36 | HMADVSPEAQHKMVEAFAQFGVTKEHIEQRIQRRLDAIQPAQMVTLKRIFASLRDGMSTPAEWFE | -1.03
37 | HMDEVVVVERGGVQITMSEIDAKIMELPVDVRPSYLDSPERLQNFVSNLLLEKQAAQLKSQY | -1.42
38 | HMSLPALALRQADSLAFKQVIYHDRVVPFNTLARDFVLKLTGKPSYGGMTPEQVVGGWLLRPEVWQNEPM | 0.00403
39 | HMLDIPEVGQAVQVRGRLGTVFSVAPYDGREGRLHLVTVDYLDDARPPENDEILWEIESGARILG | -0.763
40 | HMTEKIRLTVDEAGKNQRVDKYISTLLTQFSRSSIKTWIETGNILLDNTRTKPRTLLSPGQVIDIQPRFED | -0.144
41 | HMLEDIDNSIKKEIILEHYDKMLEFHGDYGAIIFRKLLHAYSKGYTGANEFRDLVNQISDKNIMRDLIESF | -1.17
42 | HMITKAIELAEEAEKETVWLGVWEHNHPAQKFYQSLGFVKTDEHDFYMGNERHTDYTMTKQLK | -0.958
43 | HMSNTPHSREVLLEMDAVRRLLAVGEEKGEVDRADLQGAFEEAELGRGDLDGVLSILREYDVPLAR | -0.15
44 | HMPSALGDKIRAARKALKLSLEDLAEKVSSSKSYMWELENRDEPNPGADLLMRIAAALNVTTEHLLGP | -0.0842
45 | HMQERQREGFVQQLRGKYSGQVVMRLFPELQGKALGEFMRKFEAQWEDHEAVLAAMEAHEIESRLKVFK | -1.2
46 | HMYATQLLQLEEMGFFDRAENIRALRATNGNVNAAVERL | -0.114
47 | HMRKKIIAQTLEEIRKSKGYSQKQVAAFIKVKPTTYNTYESGRTEPPAEILVRLSYLYRTPVDTLVQRDR | 0.226
48 | HMNRQTGTVKWFNDAKGFGFITPESGPDLFVHFRSIQGAGFKSLQEGQRVTFVAVQGQKGMQADQVQA | -0.429
49 | HMVVLNQEQIKFIDHYLQVSKVRYVDVRSELTDHIATAVELKMQDEALDFYEAFKAFIAVNKSQLLQRN | -0.975
50 | HMFLSQQDINRANAASVTDMGDIIRRTFERNAAEINGLELSDAEKKDAVKQMATLATTALKTAAGAVNPY | 0.152
51 | HMENIIFDIGFHKGEDTLFYLLKGYRVIAVDADPDLINEWQNIFKKYIENGKLLLLNYVISDT | -1.18
52 | HMIDFDHADIERLWNSIIHYVPERQKLDFAIDFIKSLEDIGVEHDVLRGSAELDPKLEEAVNTVFE | -0.315

Row | Sequence | soluble fraction (log2)
53 | HMKPRVTVVTLGVDDLERAVRFYAEGLGFPTEGIVGREFEFGAVAFFDMQPGLRLALWPRRSLAHDSGLP | -0.328
54 | HMEKPTEITLSNRVSVQELAEKMYVSETDIIRTLFLDGRIININQVLDIDTAIRVGEQLGIKIKII | -1.49
55 | HMKKPAERRKELVDAAAHLFAEKGYENTSVRDILDAVGGAPGMFYYYFKSKQDIYVAVMEDF | -1.1
56 | HMGGEGQIEIREREGIPAEAWVDGVMRGQTPLRVEHVSIGTRRVELRAEGRPPVAADVLVRPTVTALVELS | -0.192
57 | HMSVDDVALRLEFGPSDAEALAFVHRHGAILSETTDRDTGVVSVHVRLSEADAGRFNQRYGV | -0.233
58 | HMNTGFPIILETSDAANLTVGAPIMYRGVEVGKIRNMELNSLGDRVLIHILIGHKYQHLVRQNSEFWFSS | -2.1
59 | HMKRITGHLTEKNKKWYAVINLYDTDGKRKEKWQGLNLDANKGNKREAEHRLRQILDQYNTD | 0.125
60 | HMGASALTEREREVLRLLEGGGSDKRIARQLAISEHGVRYHLKSIYKKLGVHDRVSAIAAGRRLAS | ≥ 0.43
61 | HMNQAIIVPDVKGLPLEEATTFFENNDLRYTVIDSVYTKDVPPGAIYEMVPGAGSKVKEGRIIFVTLNAR | -0.565
62 | HMKSIPKIKWNSTLENIKNFEYQDNFFESKEMYDLLVSFYKYGFVIIKNIPTNNNFIVKFANSIGS | 0.121
63 | HMGGKTAVVTGSLVNVRKGPGTGNALVGQVARGDELPVLGQDGDWYQIKLANGSNGWVAGWLVSLKDAVP | -0.112
64 | HMRLREETRKVDKTGLIQVDGRHYRVPDEYSQKDVQILMDDNSIMVYRKGDFVIELDKETSVYMPH | -1.02
65 | HMEKSLSAQVYEKIKAGIISLKYPPGSVLKERELSESLGVSRTPVREAIQRLSQESWLVPGEGKRMQVRP | ≥ 0.43
66 | HMIKNKDRIQYTLAHRKAFRKIEKELLGYNTFRSLFHDLDKVFLYPFFDYKKVHNFHRNHAHH | 0.0879
67 | HMYEVVPNMKGLSYEQAATALRTAGLEPELSDSIYDDKTRPGTVLEQSPRANTKVKPGRTVYLTVNAF | 0.105
68 | HMVWNVEQIKRAVDQLPDGYRVVFTLYLFEGYDHREIADILGISEGGSKSQFNRAKSKLKEILTAMS | -1.2
69 | HMGNVRSWKGWTSAGGTRVQMRQGDSINSMARRYGVPIQAIVAVNGIDDPAKVQPGQSVIIPTYVY | 0.118
70 | HMSLANTSVKEMLNDLVKNEEPSKPLSDEALVKIFKEKGVKIARRTVAKYRAELNILPSHLRRT | -0.116
71 | HMVSQKPKERELWFREQLELAGLRLDPHAISAINETLGNDTGRFPGIIDTLLSTYGAGKKLSYDDVVMFL | -1.8
72 | HMKSTPMYATAIVNIRSKAGTDSEILGKLNPSEEISVISSENGWSKVSYNGKEAYISSNYLSNAKP | 0.22
73 | HMFSQDQIFLRSGEKIDARVIEVTPEFIKYKSKANPEGPLYSKKITDVLLITYANGTTEVYE | -0.749
74 | HMNISRESLIGQILATLNKNPEEGFNYKQIAKRLNITDSPGRQMISDLLRELSKHGSLQEISHGKYKIKV | 0.215
75 | HMQRRHESTPIPADFDYAAVRGLSAEVQQKLERVRPLSIGQAQRIPGMTPAAISLLLVHLERQRRSRV | 0.00221
76 | HMKQKAEVIFVSKTIMEALSKGVRLTPENLKSETELPIDDFYARLKELIDNGSVVESRENGESYLEAGN | -0.938
